According to patent US11124558B2, “Use of tetranectin and peptide agonists to treat inflammatory diseases” (The Feinstein Institutes for Medical Research, priority 2017, dated 2021):
Where two headings read alike, the source gives them in different places.

Columns and labels:
plasminogen (PLMG) = plasminogen (PLMG) (Homo sapiens, UniProt P00747); conditions: cited from earlier work
[1] = system: lethal sepsis (CLP), Balb/C mice; assay: Lethal sepsis by cecal ligation and puncture (CLP), survival in mice; assay type: in vivo; conditions: male Balb/C mice, given intraperitoneally, survival monitored more than two weeks
Method: FIG. 6A-6C: Recombinant TN protected mice against lethal endotoxemia and sepsis. Male Balb/C mice were subjected to lethal endotoxemia (LPS, 5 mg/kg, i.p., Panel A) or sepsis by cecal ligation and puncture (CLP, Panel B, C), and recombinant TN produced in HEK293 (Panel A, B) or E. coli (Panel C) was given intraperitoneally at indicated dosing regimens. Animal survival rates were monitored for more than two weeks to ensure no later death. Shown in Panel B and C is a summary of two independent experiments with similar results.
(§1) FIG. 9: N-terminal deletion TN mutant protected mice against lethal sepsis. Male Balb/C mice were subjected to lethal sepsis by cecal ligation and puncture (CLP), and recombinant deletion mutant (ΔTN) was given intrapeitoneally at indicated dosing regimens. Animal survival rates were monitored for more than two weeks to ensure no later death. Shown was a summary of two independent experiments with similar results.
as §1, with “10:” for “9: N-terminal deletion”, “peptide agonist (P11)” for “mutant”, “TN peptide agonist, (P11, […]) (SEQ ID NO:11)” for “recombinant deletion mutant (ΔTN)”, “N=8-18 animals per group.” for “similar results.”
FIG. 13A-13B: Tetranectin peptide agonists (P2 and P2-M/Nle) protected mice against lethal sepsis. Male Balb/C mice were subjected to lethal sepsis by cecal ligation and puncture (CLP), and TN peptide agonist, P2 (55-KVHMKCFLAFTQTKTF-70) (13A) (SEQ ID NO:2) or P2-M/Nle (54-TKVH(Nle)KSFLAFTQTKT-69) (13B) (SEQ ID NO:13) was given intraperitoneally at indicated dosing regimens. Animal survival rates were monitored for more than two weeks to ensure no later death. Shown was a summary of independent experiment with N=10 animals per group. The Kaplan-Meier method was used to compare the difference in mortality rates between groups. *, P<0.05 versus “CLP+Vehicle” group.
Effects of TN or peptide agonist on LSI. Balb/C mice (both male and female, 7-8 weeks, 20-25 g) are subjected to lethal endotoxemia or sepsis as described above, and the recombinant TN is injected (i.p.) at various doses and time points (2, 24, and 48 h) after the onset of endotoxemia or sepsis. Their effects on the outcomes of LSI is assessed by comparing the long-term (two-week) survival rates between the TN-treated groups with saline vehicle-treated controls. By varying the time points (e.g., 2, 12, 24 or 36 h) when the first dose of TN will be given to animals, the therapeutic windows for the TN-based therapy is estimated. […] It will be critical to continue these exciting experiments using other dosing regimens to further validate TN's protective role in LSI.
To explore the therapeutic potential of the TN-based strategies, the efficacy of TN-specific peptide agonists that would recapitulate the HMGB1-inhibiting capacities is tested using both animal models of lethal endotoxemia and sepsis. A series of peptide agonists have been designed, and chemically synthesized or biologically expressed as recombinant peptide (Table 1, FIG. 7). Peptide agonists will be given to the endotoxemic or septic mice intraperitoneally at various doses and time points after the onset of endotoxemia or sepsis. Their effects on the outcomes of LSI is assessed by comparing the long-term (two-week) survival rates between the peptide agonist groups and the saline vehicle-treated controls.
TN-specific peptide agonists are tested that would recapitulate the HMGB1-inhibiting capacities using both animal models of lethal endotoxemia and sepsis. Peptide agonists are given to the endotoxemic or septic mice intraperitoneally at various doses and time points after the onset of endotoxemia or sepsis. […]

[2] = system: GRO/CXCL1 and ENA-78/CXCL5 secretion, HuPBMCs; assay: Cytokine/chemokine secretion by HuPBMCs (Cytokine Antibody Arrays); assay type: cell-based; conditions: primary human monocytes / HuPBMCs, TN 20 μg/ml, 16 h
Method: Human blood was purchased from the Long Island Blood Bank, and HuPBMCs were isolated by density gradient centrifugation through Ficoll, and stimulated with recombinant TN (20 μg/ml) expressed in HEK293 or E. coli for 16 h. The extracellular levels of cytokines and chemokines were determined by Cytokine Antibody Arrays.
In light of the protective roles of these neutrophil-attracting chemokines, CXCL1/KC [67,68] and CXCL5/ENA-78 [69,70] in LSI, it is important to determine whether TN could modulate leukocyte infiltration to facilitate potential pathogen elimination during sepsis.

HMGB1 = target: T1, HMGB1 (Homo sapiens, UniProt P09429); assay: BIAcore surface plasmon resonance assay of HMGB1-TN interaction; conditions: TN immobilized on CM5 chip, HMGB1 as analyte; read-out: estimated (apparent) Kd of HMGB1 binding to TN
T1 sequence (P09429 1-215): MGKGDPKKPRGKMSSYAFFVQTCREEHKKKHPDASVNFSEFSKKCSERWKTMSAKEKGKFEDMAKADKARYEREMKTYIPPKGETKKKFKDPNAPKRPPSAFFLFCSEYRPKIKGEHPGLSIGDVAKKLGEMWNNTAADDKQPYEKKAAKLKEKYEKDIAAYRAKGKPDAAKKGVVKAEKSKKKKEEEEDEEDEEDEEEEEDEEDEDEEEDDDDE
Method: FIG. 11: BIAcore Surface Plasmon Resonance Assay of HMGB1-TN Interaction. Recombinant TN was immobilized on the sensor chip, and HMGB1 was applied as an analyte at different concentrations. The response units were recorded over time, and the binding affinity was estimated as the apparent Kd.
Effects of TN supplementation on the sepsis-induced coagulation. This laboratory has recently discovered that some pharmacological agents (e.g., tanshinones) inhibit HMGB1 release by facilitating its internalization into macrophage cytoplasmic vesicles via the clathrin- and caveolin-dependent endocytosis. Similarly, some endogenous proteins (e.g., haptoglobin) can also capture HMGB1 to enhance its cellular uptake through a CD163 receptor-mediated endocytosis. Thus it is determined whether TN can capture HMGB1 and enhance its internalization into macrophages/monocytes. The TN-HMGB1 interaction is investigated by employing the surface plasmon resonance (SPR) technology as previously described. Briefly, the highly purified recombinant TN or HMGB1 is covalently immobilized on a CM5 chip, and HMGB1 or TN is applied to the chip at various concentrations, before the SPR response will be monitored using a BIAcore system as previously described.

Sequence of plasminogen (PLMG) (P00747 20-810 limits assumed): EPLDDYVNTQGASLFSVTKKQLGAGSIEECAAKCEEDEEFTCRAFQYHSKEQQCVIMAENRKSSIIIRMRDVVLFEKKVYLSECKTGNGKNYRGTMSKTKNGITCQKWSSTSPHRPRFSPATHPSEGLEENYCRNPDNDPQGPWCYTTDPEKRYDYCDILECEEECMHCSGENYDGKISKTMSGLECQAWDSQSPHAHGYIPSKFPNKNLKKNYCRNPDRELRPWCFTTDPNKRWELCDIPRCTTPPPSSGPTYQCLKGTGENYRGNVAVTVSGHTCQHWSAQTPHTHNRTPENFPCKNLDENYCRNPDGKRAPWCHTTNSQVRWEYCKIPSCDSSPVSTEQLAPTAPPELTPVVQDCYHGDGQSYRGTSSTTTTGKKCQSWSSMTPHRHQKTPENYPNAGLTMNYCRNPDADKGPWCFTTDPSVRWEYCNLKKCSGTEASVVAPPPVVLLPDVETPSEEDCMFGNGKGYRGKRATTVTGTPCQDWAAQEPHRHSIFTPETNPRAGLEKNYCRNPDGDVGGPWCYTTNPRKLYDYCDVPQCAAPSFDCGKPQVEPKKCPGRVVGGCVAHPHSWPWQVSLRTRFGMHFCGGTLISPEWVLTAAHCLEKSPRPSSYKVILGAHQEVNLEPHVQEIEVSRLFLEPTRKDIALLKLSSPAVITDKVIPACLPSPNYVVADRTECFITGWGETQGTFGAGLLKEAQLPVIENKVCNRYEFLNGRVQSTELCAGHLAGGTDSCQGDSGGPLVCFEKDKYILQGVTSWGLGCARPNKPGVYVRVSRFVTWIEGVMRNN

B1: tetranectin (protein, listed as Homo sapiens)
chain: EPPTQKPKKIVNAKKDVVNTKMFEELKSRLDTLAQEVALLKEQQALQTVCLKGTKVHMKCFLAFTQTKTFHEASEDCISRGGTLGTPQTGSENDALYEYLRQSVGNEAEIWLGLNDMAAEGTWVDMTGARIAYKNWETEITAQPDGGKTENCAVLSGAANGKWFDKRCRDQLPYICQFGIV
Kd (plasminogen (PLMG); ref [57], read-out: Kd of calcium-sensitive TN-PLMG interaction): 500 nM
Kd (plasminogen (PLMG); ref [74], read-out: Kd of TN-PLMG interaction): 500 nM
protection against lethal sepsis (animal survival) [1]: significant protection
protection against lethal sepsis (animal survival) ([1]; listed as Recombinant TN): protected
protection against lethal sepsis (animal survival) ([1]; listed as recombinant TN): significant protection
release of neutrophil-attracting chemokines (CXCL1/GRO-α/KC and CXCL5/ENA-78) [2]: induced the release
release of neutrophil-attracting chemokines (CXCL1/GRO-α/KC and CXCL5/ENA-78) ([2]; listed as Recombinant TN): specifically induced
release of neutrophil-attracting chemokines (CXCL1/GRO-α/KC and CXCL5/ENA-78) ([2]; listed as recombinant TN): specifically stimulated
Kd (HMGB1): 570 nM
